Positions of bridges follow the written chain, without caps; N, C: chain ends. Non-standard residues stand in square brackets, D forms with d.
Assays:
[1] = target: T1, human melanocortin 4 receptor (human, UniProt P32245 1-332); assay: competition with 125-NDP-α-MSH, BHK human MC4R membranes
T1 construct: whole, on cells; cAMP assay on whole BHK cells; also called MC4R; human MC4 receptor
Experimental: In order to assess the binding affinity of the selected compounds for the human MC4R competitive binding assays was performed with radiolabeled NDP-alpha MSH (¹²⁵NDP-α-MSH).
The assay was performed in 96-well filterplates (Unifilter) using BHK cells stably expressing the human MC4 receptor.
The BHK cell membranes were prepared from frozen or fresh cells that were homogenized in 20 mM HEPES pH 7.1, 5 mM MgCl₂, 1 mg/ml bacitracin (buffer 1) and centrifuged at 15000 rpm at 4° C., 10 min in a Sorvall RC 5B plus, SS-34 rotor. The supernatant was discarded, and the pellets were re-suspended in buffer 1, homogenized and centrifuged two more times. The final pellets were re-suspended in buffer 1 and the protein concentration was measured and adjusted with buffer 1 to 5 mg/ml and the membrane preparation was kept at −80° C. until assay. The assay was run on a dilution of this cell membrane suspension without any further preparation. The suspension was diluted to give maximally 10% specific binding, i.e. to approx. 50-100 fold dilution, optimized after each membrane preparation. The assay was performed in a total volume of 200 μl: 50 μl of cell suspension, 50 μl of ¹²⁵NDP-α-MSH (apx. […] in final concentration), 50 μl of test compound and 50 μl binding buffer were mixed and incubated for 2 h at 25° C. (binding buffer: 25 mM HEPES, pH 7.0, 1 mM CaCl₂), 1 mM MgSO₄, 1 mM EGTA, 0.005% Tween™ 20 and 0.1% HSA or, alternatively, 0.1% ovalbumin (Sigma; catalogue No. A-5503)). Test compounds were dissolved in 100% DMSO and diluted in binding buffer in a dose range from 1 μM to 0.001 nM. Radiolabelled ligand and membranes were diluted in binding buffer. The incubation was stopped by dilution with 8×100 μl ice-cold 0.9% NaCl. The radioactivity retained on the filters was counted using a Packard Topcounter. The data were analysed by non-linear regression analysis of binding curves, using the Windows™ program GraphPad™ Prism (GraphPad Software, USA).

[2] = target: T1, human melanocortin 4 receptor; assay: cell-based or functional assay
[3] = target: human melanocortin 1 receptor (human, UniProt Q01726 1-317); assay: cell-based or functional assay
Chain of human melanocortin 1 receptor (Q01726 whole entry): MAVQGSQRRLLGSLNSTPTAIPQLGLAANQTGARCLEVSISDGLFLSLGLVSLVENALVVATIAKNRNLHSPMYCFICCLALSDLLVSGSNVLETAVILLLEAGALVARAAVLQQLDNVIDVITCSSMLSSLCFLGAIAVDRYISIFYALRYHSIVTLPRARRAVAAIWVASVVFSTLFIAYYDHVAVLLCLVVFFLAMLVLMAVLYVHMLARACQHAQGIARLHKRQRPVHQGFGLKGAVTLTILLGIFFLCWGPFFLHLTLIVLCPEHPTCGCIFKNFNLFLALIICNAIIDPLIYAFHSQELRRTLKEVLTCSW

T1 sequence (P32245 whole entry): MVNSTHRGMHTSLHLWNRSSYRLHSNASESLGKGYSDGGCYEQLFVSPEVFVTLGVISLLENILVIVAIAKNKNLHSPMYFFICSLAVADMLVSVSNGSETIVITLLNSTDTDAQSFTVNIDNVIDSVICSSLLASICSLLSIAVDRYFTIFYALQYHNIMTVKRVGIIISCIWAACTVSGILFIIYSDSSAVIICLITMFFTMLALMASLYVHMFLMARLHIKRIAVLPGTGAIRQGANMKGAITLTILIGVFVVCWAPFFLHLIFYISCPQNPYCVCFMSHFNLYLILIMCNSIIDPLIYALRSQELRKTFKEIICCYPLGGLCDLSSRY

Row | Ki [1] | MC4R cAMP EC50 [2] | MC1R cAMP EC50 [3] | Binder
1 | 0.11 nM | 0.44 nM | 68 nM | cyclo(CPH[dF]HWCKKKKW) (disulfide 1-7, also called c[c[Cys-Pro-His-D-Phe-His-Trp-Cys]-Lys-Lys-Lys-Lys-Trp]) [Chem. 75]
2 | 0.19 nM | 0.59 nM | 43.4 nM | cyclo(C[dK]H[dF]HWCAKKKW) (disulfide 1-7; SMILES C[C@@H]1NC(=O)[C@@H]2CSSC[C@H](NC(=O)[C@H](Cc3c[nH]c4ccccc34)NC(=O)[C@H](CCCCN)NC(=O)[C@H](CCCCN)NC(=O)[C@H](CCCCN)NC1=O)C(=O)N[C@H](CCCCN)C(=O)N[C@@H](Cc1c[nH]cn1)C(=O)N[C@H](Cc1ccccc1)C(=O)N[C@@H](Cc1c[nH]cn1)C(=O)N[C@@H](Cc1c[nH]c3ccccc13)C(=O)N2, also called c[c[Cys-D-Lys-His-D-Phe-His-Trp-Cys]-Ala-Lys-Lys-Lys-Trp]) [Chem. 84]
3 | 0.72 nM | 0.46 nM | 49.8 nM | cyclo(CKH[dF]HWCKKKKW) (disulfide 1-7; SMILES NCCCC[C@@H]1NC(=O)[C@H](CCCCN)NC(=O)[C@H](CCCCN)NC(=O)[C@@H]2CSSC[C@H](NC(=O)[C@H](Cc3c[nH]c4ccccc34)NC(=O)[C@H](CCCCN)NC1=O)C(=O)N[C@@H](CCCCN)C(=O)N[C@@H](Cc1c[nH]cn1)C(=O)N[C@H](Cc1ccccc1)C(=O)N[C@@H](Cc1c[nH]cn1)C(=O)N[C@@H](Cc1c[nH]c3ccccc13)C(=O)N2, also called c[c[Cys-Lys-His-D-Phe-His-Trp-Cys]-Lys-Lys-Lys-Lys-Trp]) [Chem. 77]
4 | 0.02 nM | 0.04 nM | 3.8 nM | cyclo(CKH[dF]HWCAKKKR) (disulfide 1-7; SMILES C[C@@H]1NC(=O)[C@@H]2CSSC[C@H](NC(=O)[C@H](CCCNC(=N)N)NC(=O)[C@H](CCCCN)NC(=O)[C@H](CCCCN)NC(=O)[C@H](CCCCN)NC1=O)C(=O)N[C@@H](CCCCN)C(=O)N[C@@H](Cc1c[nH]cn1)C(=O)N[C@H](Cc1ccccc1)C(=O)N[C@@H](Cc1c[nH]cn1)C(=O)N[C@@H](Cc1c[nH]c3ccccc13)C(=O)N2, also called c[c[Cys-Lys-His-D-Phe-His-Trp-Cys]-Ala-Lys-Lys-Lys-Arg]) [Chem. 78]
5 | 0.07 nM | 0.22 nM | 87.7 nM | cyclo(CPH[dF]HWCAKKHR) (disulfide 1-7; SMILES C[C@@H]1NC(=O)[C@@H]2CSSC[C@H](NC(=O)[C@H](CCCNC(=N)N)NC(=O)[C@H](Cc3c[nH]cn3)NC(=O)[C@H](CCCCN)NC(=O)[C@H](CCCCN)NC1=O)C(=O)N1CCC[C@H]1C(=O)N[C@@H](Cc1c[nH]cn1)C(=O)N[C@H](Cc1ccccc1)C(=O)N[C@@H](Cc1c[nH]cn1)C(=O)N[C@@H](Cc1c[nH]c3ccccc13)C(=O)N2, also called c[c[Cys-Pro-His-D-Phe-His-Trp-Cys]-Ala-Lys-Lys-His-Arg]) [Chem. 95]
6 | 0.04 nM | 0.04 nM | 57.7 nM | cyclo(CPH[dF]HWCAHKKR) (disulfide 1-7; SMILES C[C@@H]1NC(=O)[C@@H]2CSSC[C@H](NC(=O)[C@H](CCCNC(=N)N)NC(=O)[C@H](CCCCN)NC(=O)[C@H](CCCCN)NC(=O)[C@H](Cc3c[nH]cn3)NC1=O)C(=O)N1CCC[C@H]1C(=O)N[C@@H](Cc1c[nH]cn1)C(=O)N[C@H](Cc1ccccc1)C(=O)N[C@@H](Cc1c[nH]cn1)C(=O)N[C@@H](Cc1c[nH]c3ccccc13)C(=O)N2, also called c[c[Cys-Pro-His-D-Phe-His-Trp-Cys]-Ala-His-Lys-Lys-Arg]) [Chem. 96]
7 | 0.09 nM | 0.16 nM | 21.8 nM | cyclo(CKH[dF]HWCAKKKW) (disulfide 1-7; SMILES C[C@@H]1NC(=O)[C@@H]2CSSC[C@H](NC(=O)[C@H](Cc3c[nH]c4ccccc34)NC(=O)[C@H](CCCCN)NC(=O)[C@H](CCCCN)NC(=O)[C@H](CCCCN)NC1=O)C(=O)N[C@@H](CCCCN)C(=O)N[C@@H](Cc1c[nH]cn1)C(=O)N[C@H](Cc1ccccc1)C(=O)N[C@@H](Cc1c[nH]cn1)C(=O)N[C@@H](Cc1c[nH]c3ccccc13)C(=O)N2, also called c[c[Cys-Lys-His-D-Phe-His-Trp-Cys]-Ala-Lys-Lys-Lys-Trp]) [Chem. 76]
